“And” between values parts separate entries of the source, which are not always exact repeats. Equal values may be shown once. Read-outs that look alike come from different tables or passages of the source.

Results on one substance are retold here after publication PMC3819817.

In test [1] the target is recombinant Arabidopsis thaliana Nfu2 without the plastidial targeting sequence (Arabidopsis thaliana) (UniProt Q93W20). Briefly: SEC. For orientation: SEC sorts molecules by how far they enter the pores of the column.
Test [2] has the same target. The test can be described thus: SEC. The source holds these as a separate data set.

For the substance “recombinant Arabidopsis thaliana Nfu2 without the plastidial targeting sequence (from UniProt Q93W20 73-235) (natural protein)”, the stoichiometry N was 2 in test [1]; 4 and 2 in test [2].

The term stoichiometry N denotes a count of units in the complex or per binding partner.
